# How the values were obtained:
# [1] = molecular target: Full-length five-subunit Danio rerio tRNA ligase complex (DDX1, RTCB, FAM98B, CGI99, ASW) (Danio rerio) (UniProt F1R2L8)
# [2] = molecular target: Truncated Danio rerio tRNA ligase complex (His6-RTCB, FAM98B, CGI99, ASW 1-83, DDX1 693-740) (Danio rerio) (UniProt Q6NZS4)
# [3] = molecular target: Dr-tRNA-LC-FL (DDX1, RTCB, FAM98B, CGI99, ASW) (Danio rerio) (UniProt F1R2L8+Q6NZS4+A0PJS3+Q7ZUH1); assay: MST; settings: 2 mM GTP, 2 mM MnCl2 (buffer B, implied by text); MST: 25 mM Hepes pH 7.5, 150 mM NaCl, 1 mM DTT, with or without 2 mM GTP and 2 mM MnCl2, 20 nM Cy5-tRNA, temperature not stated; crosslinking: 50 mM Tris pH …
# [4] = molecular target: T1, Dr-tRNA-LC-TR (DDX1 C-term, RTCB, FAM98B, CGI99, ASW N-term) (Danio rerio) (UniProt F1R2L8+Q6NZS4+A0PJS3+Q7ZUH1); assay: MST; settings: 2 mM GTP, 2 mM MnCl2 (buffer B, implied by text); MST: 25 mM Hepes pH 7.5, 150 mM NaCl, 1 mM DTT, with or without 2 mM GTP and 2 mM MnCl2, 20 nM Cy5-tRNA, temperature not stated; crosslinking: 50 mM Tris pH …
# T1 sequence 1: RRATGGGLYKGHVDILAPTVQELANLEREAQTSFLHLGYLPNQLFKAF
# T1 sequence 2: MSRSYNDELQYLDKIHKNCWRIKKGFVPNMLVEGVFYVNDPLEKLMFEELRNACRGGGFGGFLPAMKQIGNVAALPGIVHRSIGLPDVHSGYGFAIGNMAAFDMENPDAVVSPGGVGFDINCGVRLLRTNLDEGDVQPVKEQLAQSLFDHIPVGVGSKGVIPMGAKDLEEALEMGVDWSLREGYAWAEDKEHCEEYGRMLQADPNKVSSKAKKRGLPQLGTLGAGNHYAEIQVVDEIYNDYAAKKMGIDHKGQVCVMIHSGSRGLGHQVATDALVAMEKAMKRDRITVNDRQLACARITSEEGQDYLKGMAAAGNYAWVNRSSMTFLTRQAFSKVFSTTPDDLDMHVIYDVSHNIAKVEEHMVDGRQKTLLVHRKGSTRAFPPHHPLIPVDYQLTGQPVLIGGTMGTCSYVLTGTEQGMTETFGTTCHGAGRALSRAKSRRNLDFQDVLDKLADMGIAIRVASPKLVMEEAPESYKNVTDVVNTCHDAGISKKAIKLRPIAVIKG
# T1 sequence 3: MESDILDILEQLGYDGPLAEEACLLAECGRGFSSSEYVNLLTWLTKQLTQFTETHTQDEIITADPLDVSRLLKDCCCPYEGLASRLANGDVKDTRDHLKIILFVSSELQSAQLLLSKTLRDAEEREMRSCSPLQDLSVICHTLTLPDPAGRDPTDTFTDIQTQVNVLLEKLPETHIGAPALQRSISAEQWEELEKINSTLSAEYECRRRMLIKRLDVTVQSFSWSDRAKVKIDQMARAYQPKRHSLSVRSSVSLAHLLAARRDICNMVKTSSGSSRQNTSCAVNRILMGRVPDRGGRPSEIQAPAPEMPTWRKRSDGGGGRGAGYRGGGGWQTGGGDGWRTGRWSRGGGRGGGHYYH
# T1 sequence 4: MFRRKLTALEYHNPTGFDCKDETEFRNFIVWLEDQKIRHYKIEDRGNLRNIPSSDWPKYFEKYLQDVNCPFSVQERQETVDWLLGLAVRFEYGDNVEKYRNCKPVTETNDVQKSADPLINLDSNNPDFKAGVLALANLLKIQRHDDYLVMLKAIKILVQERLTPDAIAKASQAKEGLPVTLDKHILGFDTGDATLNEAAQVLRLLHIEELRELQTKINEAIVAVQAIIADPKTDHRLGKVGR
"RNA ligase activity on the short 10-bp RNA duplex substrate, percent of substrate converted to product, time course up to 120 min (0.15 μM complex, 0.6 μM Dr-Archease) [1] [%]","RNA ligase activity on the short 10-bp RNA duplex substrate, percent of substrate converted to product, time course up to 120 min (0.15 μM complex, 0.6 μM Dr-Archease) [2] [%]",Substance,Kd [3] [µM],Kd [4] [µM]
60,85,Danio rerio Archease (natural protein),,
,,GGCUCCAGUGGCGCAAUCGGUUAGCGCGCGGUACUUAUAAUGCCGAGGUUGUGAGUUCGAGCCUCACCUGGAGCACCA [tRNAIle],0.094,0.0894

# — PMC12135372
